T1: Monoscaffoldin (truncated CipA), Cohesin 2-CBM3a, Q06851
T1 chain: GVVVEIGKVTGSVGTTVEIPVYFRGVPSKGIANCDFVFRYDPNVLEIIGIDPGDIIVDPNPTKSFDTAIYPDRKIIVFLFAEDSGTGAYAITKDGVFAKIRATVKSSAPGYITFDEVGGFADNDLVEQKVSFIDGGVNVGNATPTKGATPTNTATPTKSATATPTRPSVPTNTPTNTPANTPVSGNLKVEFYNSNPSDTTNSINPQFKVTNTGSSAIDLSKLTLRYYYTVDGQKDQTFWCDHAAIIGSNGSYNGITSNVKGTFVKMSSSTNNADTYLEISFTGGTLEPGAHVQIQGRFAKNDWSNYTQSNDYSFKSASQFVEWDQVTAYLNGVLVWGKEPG

B1: Chimera2 of CbhA (CBM4-Ig-GH9-linker2-CBM3b-Doc) (protein)
chain: LEDNSSTLPPYKNDLLYERTFDEGLCYPWHTCEDSGGKCSFDVVDVPGQPGNKAFAVTVLDKGQNRWSVQMRHRGLTLEQGHTYRVRLKIWADASCKVYIKIGQMGEPYAEYWNNKWSPYTLTAGKVLEIDETFVMDKPTDDTCEFTFHLGGELAATPPYTVYLDDVSLYDPEYTKPVEYILPQPDVRVNQVGYLPEGKKVATVVCNSTQPVKWQLKNAAGVVVLEGYTEPKGLDKDSQDYVHWLDFSDFATEGIGYYFELPTVNSPTNYSHPFDIRKDIYTQMKYDALAFFYHKRSGIPIEMPYAGGEQWTRPAGHIGIEPNKGDTNVPTWPQDDEYAGIPQKNYTKDVTGGWYDAGDHGKYVVNGGIAVWTLMNMYERAKIRGLDNWGPYRDGGMNIPEQNNGYPDILDEARWEIEFFKKMQVTEKEDPSIAGMVHHKIHDFRWTALGMLPHEDPQPRYLRPVSTAATLNFAATLAQSARLWKDYDPTFAADCLEKAEIAWQAALKHPDIYAEYTPGSGGPGGGPYNDDYVGDEFYWAACELYVTTGKDEYKNYLMNSPHYLEMPAKMGENGGANGEDNGLWGCFTWGTTQGLGTITLALVENGLPATDIQKARNNIAKAADRWLENIEEQGYRLPIKQAEDERGGYPWGSNSFILNQMIVMGYAYDFTGDSKYLDGMFDGISYLLGRNAMDQSYVTGYGERPLQNPHDRFWTPQTSKRFPAPPPGIISGGPNSRFEDPTINAAVKKDTPPQKCFIDHTDSWSTNEITVNWNAPFAWVTAYLDEQYTDSETDTPTPTATPAPTVTPTPTPAPTPTPTPTPTATPTPTPTPTPTATPTVTATPTPTPSSTPVKVQYLCENTQTSTQEIKGKFNIVNTGNRDYSLKDIVLRYYFTKEHNSQLQFICYYTPIGSGNLIPSFGGSGDEHYLQLEFKDVKLPAGGQTGEIQFVIRYADNSFHDQSNDYSFDPTIKAFQDYGKVTLYKNGELVWGTPPGGTEPEEPEEPAIVYGDCNDDGKVNSTDVAVMKRYLKKENVNINLDNADVNADGKVNSTDFSILKRYVMKNIEELPYR
B2: wild-type CbhA from Clostridium thermocellum (CBM4-Ig-GH9-linker3-CBM3b-Doc) (protein)
chain: MKFRRSICTAVLLAVLLTLLVPTSVFALEDNSSTLPPYKNDLLYERTFDEGLCYPWHTCEDSGGKCSFDVVDVPGQPGNKAFAVTVLDKGQNRWSVQMRHRGLTLEQGHTYRVRLKIWADASCKVYIKIGQMGEPYAEYWNNKWSPYTLTAGKVLEIDETFVMDKPTDDTCEFTFHLGGELAATPPYTVYLDDVSLYDPEYTKPVEYILPQPDVRVNQVGYLPEGKKVATVVCNSTQPVKWQLKNAAGVVVLEGYTEPKGLDKDSQDYVHWLDFSDFATEGIGYYFELPTVNSPTNYSHPFDIRKDIYTQMKYDALAFFYHKRSGIPIEMPYAGGEQWTRPAGHIGIEPNKGDTNVPTWPQDDEYAGIPQKNYTKDVTGGWYDAGDHGKYVVNGGIAVWTLMNMYERAKIRGLDNWGPYRDGGMNIPEQNNGYPDILDEARWEIEFFKKMQVTEKEDPSIAGMVHHKIHDFRWTALGMLPHEDPQPRYLRPVSTAATLNFAATLAQSARLWKDYDPTFAADCLEKAEIAWQAALKHPDIYAEYTPGSGGPGGGPYNDDYVGDEFYWAACELYVTTGKDEYKNYLMNSPHYLEMPAKMGENGGANGEDNGLWGCFTWGTTQGLGTITLALVENGLPATDIQKARNNIAKAADRWLENIEEQGYRLPIKQAEDERGGYPWGSNSFILNQMIVMGYAYDFTGDSKYLDGMFDGISYLLGRNAMDQSYVTGYGERPLQNPHDRFWTPQTSKRFPAPPPGIISGGPNSRFEDPTINAAVKKDTPPQKCFIDHTDSWSTNEITVNWNAPFAWVTAYLDEQYTDSETDKVTIDSPVAGERFEAGKDINISATVKSKTPVSKVEFYNGDTLISSDTTAPYTAKITGAAVGAYNLKAVAVLSDGRRIESPVTPVLVKVIVKPTVKLTAPKSNVVAYGNEFLKITATASDSDGKISRVDFLVDGEVIGSDREAPYEYEWKAVEGNHEISVIAYDDDDAASTPDSVKIFVKQARDVKVQYLCENTQTSTQEIKGKFNIVNTGNRDYSLKDIVLRYYFTKEHNSQLQFICYYTPIGSGNLIPSFGGSGDEHYLQLEFKDVKLPAGGQTGEIQFVIRYADNSFHDQSNDYSFDPTIKAFQDYGKVTLYKNGELVWGTPPGGTEPEEPEEPAIVYGDCNDDGKVNSTDVAVMKRYLKKENVNINLDNADVNADGKVNSTDFSILKRYVMKNIEELPYR

What was measured:
[1] = target: Monoscaffoldin (truncated CipA), Cohesin 2-CBM3a (UniProt Q06851)
[2] = target: T1, Monoscaffoldin (truncated CipA), …

Molecule | yield of soluble sugar from Avicel after 119 hour digestion, with the adaptor relative to without it [1] | yield of soluble sugar from Avicel after 119 hour digestion, with the adaptor relative to without it [2]
Chimera1 of CbhA (CBM4-Ig-GH9-linker1-CBM3b-Doc) | increased by factors of 1.55 and 1.73 | 
B1 |  | increased by factors of 1.55 and 1.73
B2 |  | increased by a factor of only 1.09

From patent publication US20140017734
